{"source": "patent US20150045310A1", "about": "(published 2015)", "key": {"[1]": {"molecular_target": "T1, A1 (biotinylated pro-survival Bcl-2 family protein) (UniProt Q16548 1-152, biotinylated (co-expressed E. coli biotin ligase BirA))", "T1 chain": "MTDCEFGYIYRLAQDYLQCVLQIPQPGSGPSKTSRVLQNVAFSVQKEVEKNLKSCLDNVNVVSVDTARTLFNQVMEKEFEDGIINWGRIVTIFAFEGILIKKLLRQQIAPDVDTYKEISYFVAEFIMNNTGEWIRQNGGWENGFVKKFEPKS", "assay": "flow cytometry, bacterial surface display (eCPX); apparent Kd; FIG. 7AH"}, "[2]": {"molecular_target": "T2, Mcl-1 (biotinylated pro-survival Bcl-2 family protein) (UniProt Q07820 171-327, biotinylated (co-expressed E. coli biotin ligase BirA))", "T2 chain": "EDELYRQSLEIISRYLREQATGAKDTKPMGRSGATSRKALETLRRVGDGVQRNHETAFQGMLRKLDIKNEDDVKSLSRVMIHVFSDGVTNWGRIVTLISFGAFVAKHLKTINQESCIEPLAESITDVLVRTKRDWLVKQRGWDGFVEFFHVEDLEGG", "assay": "cell surface display FACS titration; apparent Kd"}, "[3]": {"molecular_target": "Bcl-2 (biotinylated pro-survival Bcl-2 family protein) (UniProt P10415 1-217, biotinylated (co-expressed E. coli biotin ligase BirA))", "sequence (P10415 1-217)": "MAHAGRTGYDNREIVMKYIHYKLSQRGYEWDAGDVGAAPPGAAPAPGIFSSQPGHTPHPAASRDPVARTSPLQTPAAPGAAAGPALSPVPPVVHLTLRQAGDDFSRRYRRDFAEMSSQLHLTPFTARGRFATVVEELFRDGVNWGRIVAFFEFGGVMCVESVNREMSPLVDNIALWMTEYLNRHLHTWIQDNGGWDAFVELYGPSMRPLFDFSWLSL", "assay": "cell surface display FACS titration; apparent Kd"}}, "note": "Where no end group is shown, it is not given here. eCPX = enhanced circularly permuted OmpX display scaffold; linker = not defined here", "data": [{"binder": "WLAQLLRRYGDEFN (also: displayed as fusion to eCPX scaffold (letters not given here))", "note": "[Bim BH3 14-mer variant X2-8 displayed on eCPX]", "values": [{"measurement": "Kd", "setting": "[1]", "result": 5.8, "unit": "nM"}]}, {"binder": "WIAQTLRRIGDEFN", "note": "[Bim BH3 14-mer E151T displayed on eCPX]", "values": [{"measurement": "Kd", "setting": "[2]", "result": 33.2, "unit": "nM"}]}, {"binder": "WIAQLLRRIGDEFN", "note": "[Bim BH3 14-mer E151L displayed on eCPX]", "values": [{"measurement": "Kd", "setting": "[2]", "result": 17.8, "unit": "nM"}]}, {"binder": "WVAQLLRRIGDEVN-{linker-eCPX} (reading uncertain; also: printed as Trp-Val-Ala-Gln-Leu-Leu-Arg-Arg-Ile-Gly-Asp-Glu-Val-Asn)", "note": "[Bim BH3 14-mer variant M2-2 displayed on eCPX]", "values": [{"measurement": "Kd", "setting": "[3]", "result": "> 10000", "unit": "nM"}]}]}
